Assay results taken from article PMC8634136 (The EMBO Journal, 2021).

T1: MCM5 (human, UniProt P33992 1-734)
T1 construct: MCM5, human; Stood in the structure as a subunit of m1; source: Hi5 insect cells, purified as a subunit of hsCMG
T1 sequence: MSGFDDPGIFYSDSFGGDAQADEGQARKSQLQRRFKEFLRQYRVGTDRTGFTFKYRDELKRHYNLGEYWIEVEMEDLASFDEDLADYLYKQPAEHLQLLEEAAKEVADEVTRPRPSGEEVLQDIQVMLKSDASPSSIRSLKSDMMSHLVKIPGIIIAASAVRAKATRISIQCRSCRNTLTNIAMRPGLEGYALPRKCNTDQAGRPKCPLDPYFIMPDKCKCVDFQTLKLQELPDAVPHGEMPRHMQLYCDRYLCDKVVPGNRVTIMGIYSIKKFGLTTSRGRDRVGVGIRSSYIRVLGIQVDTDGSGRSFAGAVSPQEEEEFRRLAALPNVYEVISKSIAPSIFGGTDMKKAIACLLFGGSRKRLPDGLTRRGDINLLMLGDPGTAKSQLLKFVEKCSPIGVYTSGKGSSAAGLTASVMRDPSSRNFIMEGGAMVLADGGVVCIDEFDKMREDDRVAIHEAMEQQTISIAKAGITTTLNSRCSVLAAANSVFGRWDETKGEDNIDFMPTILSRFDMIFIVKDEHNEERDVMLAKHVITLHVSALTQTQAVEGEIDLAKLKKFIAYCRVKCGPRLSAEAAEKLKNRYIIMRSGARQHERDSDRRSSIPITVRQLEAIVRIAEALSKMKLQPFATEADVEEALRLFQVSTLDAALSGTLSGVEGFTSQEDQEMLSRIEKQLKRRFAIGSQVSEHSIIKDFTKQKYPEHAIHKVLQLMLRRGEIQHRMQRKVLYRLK

B1: PSF1 (natural protein, human)
chain: MFCEKAMELIRELHRAPEGQLPAFNEDGLRQVLEEMKALYEQNQSDVNEAKSGGRSDLIPTIKFRHCSLLRNRRCTVAYLYDRLLRIRALRWEYGSVLPNALRFHMAAEEMEWFNNYKRSLATYMRSLGGDEGLDITQDMKPPKSLYIEVRCLKDYGEFEVDDGTSVLLKKNSQHFLPRWKCEQLIRQGVLEHILS
notes: PSF1 (GINS subunit), human; Stood in the structure as a subunit of m1; also called GINS subunit PSF1; source: Hi5 insect cells, purified as a subunit of hsCMG
B2: POLE2 (natural protein, human)
chain: MAPERLRSRALSAFKLRGLLLRGEAIKYLTEALQSISELELEDKLEKIINAVEKQPLSSNMIERSVVEAAVQECSQSVDETIEHVFNIIGAFDIPRFVYNSERKKFLPLLMTNHPAPNLFGTPRDKAEMFRERYTILHQRTHRHELFTPPVIGSHPDESGSKFQLKTIETLLGSTTKIGDAIVLGMITQLKEGKFFLEDPTGTVQLDLSKAQFHSGLYTEACFVLAEGWFEDQVFHVNAFGFPPTEPSSTTRAYYGNINFFGGPSNTSVKTSAKLKQLEEENKDAMFVFLSDVWLDQVEVLEKLRIMFAGYSPAPPTCFILCGNFSSAPYGKNQVQALKDSLKTLADIICEYPDIHQSSRFVFVPGPEDPGFGSILPRPPLAESITNEFRQRVPFSVFTTNPCRIQYCTQEITVFREDLVNKMCRNCVRFPSSNLAIPNHFVKTILSQGHLTPLPLYVCPVYWAYDYALRVYPVPDLLVIADKYDPFTTTNTECLCINPGSFPRSGFSFKVFYPSNKTVEDSKLQGF
notes: POLE2, human; Stood in the structure as a subunit of m2; residues 1-527 modelled; source: Hi5 insect cells, purified as a subunit of Pol ε

What was measured:
POLE2 = target: B2; assay: cryo-EM structure; replisome reconstituted on fork DNA with AMP-PNP, isolated on a glycerol gradient with glutaraldehyde and BS3; 3.2 Å overall; a sample without CLASPIN solved at 3.4 Å; settings: both partners purified
MCM5 = target: T1, MCM5; assay: as above; settings: both partners purified

Binder	binding result (POLE2)	binding result (MCM5)
B1	binds	
B2		binds
